Test results as given in the Human Domainome abundance scans (Beltran et al. 2025).
± gives the uncertainty stated by the source.

B1: Retinoic acid receptor RXR-alpha, residues 132 to 208; numbered along this chain, P19793 (parent)
chain: KHICAICGDRSSGKHYGVYSCEGCKGFFKRTVRKDLTYTCRDNKDCLIDKRQRNRCQYCRYQKCLAMGMKREAVQEE

Variants of: B1
Experiment: abundance fitness (aPCA) (normalised: wild type 0, dead -1); higher = more abundant; growth selection in yeast, the domain comes from the species named
Conditions: Homo sapiens

Variant	abundance fitness
R53E	0.061 ± 0.047
R53T	0.063 ± 0.031
R53C	-0.063 ± 0.04
R53H	0.015 ± 0.036
R53S	-0.076 ± 0.029
R53A	-0.008 ± 0.033
R53Y	0.007 ± 0.036
R53I	0.014 ± 0.035
R53N	0.03 ± 0.033
R53P	0.027 ± 0.037
R71V	0.021 ± 0.028
R71E	0.006 ± 0.035
R71T	0.019 ± 0.029
R71A	0.033 ± 0.029
R71S	0.003 ± 0.024
R71F	0.01 ± 0.032
R71L	0.033 ± 0.024
R71H	-0.007 ± 0.033
R71G	-0.004 ± 0.027
R71K	0.043 ± 0.034
R71I	0.028 ± 0.033
R71N	0.015 ± 0.038
R71Y	0.006 ± 0.033
R71W	-0.056 ± 0.036

Variant	abundance fitness
R71Q	0.001 ± 0.034
R71P	0.005 ± 0.031
R71D	0.065 ± 0.036
R71C	-0.001 ± 0.04
R71M	-0.01 ± 0.032
K70P	0.021 ± 0.05
K70I	0.035 ± 0.064
K70W	-0.005 ± 0.038
K70H	0.037 ± 0.072
K70Q	-0.01 ± 0.042
K70D	0.006 ± 0.052
K70L	0.01 ± 0.034
K70V	0.04 ± 0.034
K70A	-0.014 ± 0.036
K70Y	0.037 ± 0.061
K70M	-0.034 ± 0.042
K70N	0.061 ± 0.079
K70S	0.002 ± 0.035
K70F	0.043 ± 0.054
K70E	-0.074 ± 0.04
K70R	-0.012 ± 0.029
L65A	-0.038 ± 0.036
L65S	-0.061 ± 0.035
L65H	-0.078 ± 0.071

Variant	abundance fitness
L65M	-0.058 ± 0.041
L65F	-0.036 ± 0.056
L65V	0.033 ± 0.032
L65G	-0.148 ± 0.03
L65R	-0.111 ± 0.032
L65Q	0.021 ± 0.053
L65W	-0.108 ± 0.042
L65C	0.044 ± 0.047
L65I	-0.132 ± 0.077
L65N	0.11 ± 0.092
L65Y	0.015 ± 0.078
L65T	0.057 ± 0.053
L65D	-0.133 ± 0.048
L65K	-0.008 ± 0.046
E76M	-0.036 ± 0.042
E76G	0.05 ± 0.038
E76W	-0.052 ± 0.053
E76N	0.022 ± 0.037
E76S	-0.034 ± 0.029
E76Q	0.001 ± 0.044
E76Y	-0.011 ± 0.035
E76T	-0.049 ± 0.032
E76K	-0.099 ± 0.06
E76P	-0.054 ± 0.034

Variant	abundance fitness
E76H	-0.012 ± 0.036
E76R	-0.037 ± 0.036
E76L	0.01 ± 0.028
E76F	0.003 ± 0.035
E76D	0.05 ± 0.041
E76C	0.023 ± 0.044
E76V	0 ± 0.035
E72T	-0.026 ± 0.071
E72M	-0.07 ± 0.099
E72W	0.041 ± 0.2
E72P	-0.12 ± 0.089
E72L	-0.046 ± 0.092
E72G	-0.096 ± 0.14
E72R	-0.017 ± 0.084
E72V	0.16 ± 0.25
E72D	0.047 ± 0.32
E72Q	-0.042 ± 0.14
E72A	-0.022 ± 0.12
E72S	0.034 ± 0.078
E72C	-0.047 ± 0.19
E72I	0.046 ± 0.15
E72H	-0.109 ± 0.093
E72F	-0.19 ± 0.17
Y61H	-0.08 ± 0.4

Variant	abundance fitness
Y61C	-0.06 ± 0.28
Y61N	0.101 ± 0.16
Q75L	-0.031 ± 0.028
Q75R	0.003 ± 0.031
Q75E	0.073 ± 0.05
Q75I	-0.014 ± 0.033
Q75K	-0.047 ± 0.05
Q75C	0.026 ± 0.041
Q75A	-0.049 ± 0.033
Q75F	-0.039 ± 0.034
Q75P	-0.002 ± 0.033
Q75G	-0.006 ± 0.04
Q75Y	-0.092 ± 0.036
Q75V	0.013 ± 0.034
Q75H	-0.049 ± 0.032
Q75D	0.022 ± 0.041
Q75M	0.043 ± 0.036
Q75S	-0.004 ± 0.028
Q75T	-0.011 ± 0.028
Q75W	-0.129 ± 0.054
Q75N	-0.052 ± 0.037
G68F	-0.091 ± 0.031
G68Q	-0.054 ± 0.047
G68H	-0.103 ± 0.035

Variant	abundance fitness
G68V	-0.645 ± 0.057
G68T	-0.357 ± 0.036
G68S	-0.108 ± 0.029
G68L	-0.362 ± 0.032
G68M	-0.26 ± 0.046
G68Y	-0.227 ± 0.04
G68K	-0.079 ± 0.056
G68N	-0.02 ± 0.033
G68E	-0.112 ± 0.057
G68D	-0.06 ± 0.047
G68C	-0.136 ± 0.041
G68I	-0.544 ± 0.049
G68W	-0.302 ± 0.056
G68R	-0.238 ± 0.038
Q57E	-0.045 ± 0.042
Q57T	-0.065 ± 0.044
Q57I	-0.167 ± 0.072
Q57L	-0.016 ± 0.036
Q57W	-0.026 ± 0.036
Q57K	-0.113 ± 0.043
Q57Y	-0.065 ± 0.065
Q57R	0.003 ± 0.031
Q57G	0.03 ± 0.03
Q57C	-0.037 ± 0.048

Variant	abundance fitness
Q57V	-0.04 ± 0.034
Q57P	0.032 ± 0.049
Q57N	-0.052 ± 0.069
Q57D	0.05 ± 0.057
C56Y	-0.431 ± 0.19
C56S	-0.293 ± 0.38
M67A	0.009 ± 0.029
M67P	-0.621 ± 0.052
M67Y	-0.008 ± 0.031
M67K	0.007 ± 0.036
M67G	-0.023 ± 0.026
M67E	-0.016 ± 0.036
M67I	0.007 ± 0.031
M67W	-0.055 ± 0.037
M67R	0 ± 0.026
M67S	0.019 ± 0.025
M67V	-0.009 ± 0.026
M67C	-0.019 ± 0.035
M67N	-0.006 ± 0.032
M67F	-0.017 ± 0.032
M67Q	-0.017 ± 0.036
M67L	0.018 ± 0.025
C64Y	-0.421 ± 0.4
